Measured values as given in article PMC11869757 (Drug Design, Development and Therapy, 2025).

Target: T1, CD122/IL-2Rβ with a His-tag (Sino Biological, 10696-H08B) (human, UniProt P14784)
T1 sequence: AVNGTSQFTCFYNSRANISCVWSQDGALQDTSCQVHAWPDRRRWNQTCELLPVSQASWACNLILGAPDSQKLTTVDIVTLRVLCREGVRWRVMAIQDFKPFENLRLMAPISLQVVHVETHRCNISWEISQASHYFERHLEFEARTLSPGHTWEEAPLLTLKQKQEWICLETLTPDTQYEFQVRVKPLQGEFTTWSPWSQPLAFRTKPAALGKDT
Assay: SPR

Kd: 1.71 µM
B1: SHR-1916, PEGylated interleukin-2 analogue (IL-2 N26Q/N29S/F42A/N71Q/L72G/C125A with a 20 kDa PEG at the N-terminus) (ligand)
chain: APTSSSTKKTQLQLEHLLLDLQMILQGISNYKNPKLTRMLTAKFYMPKKATELKHLQCLEEELKPLEEVLQGAQSKNFHLRPRDLISNINVIVLELKGSETTFMCEYADETATIVEFLNRWITFAQSIISTLT
modifications: 20 kDa PEG on the N-terminal amine group
